Legend:
ATF6 in BMDCs = assay: ATF6 activation in BMDCs (immunoblot, proteolytic processing); type: cell-based, mouse; settings: MG132 5 μM or ovalbumin 500 μg/ml, in words
Procedure: Figure S1. Antigen pulsing of BMDCs activates IRE1α. (A) BMDCs were treated with MG132 (5 μM) or ovalbumin (500 μg/ml) for indicated time points and analyzed by IB. (B) BMDCs were pulsed with ovalbumin (500 μg/ml) and G9668 (3 μM) for indicated time periods and analyzed by IB. (C) Molecular structure, potency, and kinase selectivity of G9668. (D) Schematic representation of G9668 interaction with 220 kinases at 1 μM. Size and color of circles represent interaction strength. Analysis was conducted by KinomeScan. (E) BMDCs were pulsed for 4 h with APC-tagged ovalbumin or soluble CD4-Fc protein (500 μg/ml) with amiloride (10 μM); uptake of protein was assayed by flow cytometry (n = 3). (F) WT or MyD88 KO Flt3L-derived BMDCs were pulsed with ovalbumin (500 μg/ml) or soluble CD4-Fc protein (500 μg/ml), or treated with LPS (10 μg/ml) for 4 h and analyzed by IB. (G) MEFs and BMDCs were pulsed with ovalbumin or treated with Tg (100 nM) for 4 h and analyzed by IB. Images in A, B, F, and G represent at least two similar experiments, and molecular weights represent kD; E bar graphs represent mean ± SD from three independent biological repeats. Analysis for E was performed using unpaired, two-tailed t test; *, P ≤ 0.05; **, P ≤ 0.01. Source data are available for this figure: SourceData FS1. […]

IRE1α LD-Fc [1] = assay: Plate-based ovalbumin binding to IRE1α LD-Fc; design: species or system human; settings: LD-Fc 10 μg/ml, 2 h, room temperature; in words
Procedure: (§1) For experiments testing ovalbumin binding, a human LD-Fc was used at indicated concentrations. LD-Fc is comprised of amino acids M1-D443 of IRE1α fused C-terminally to a linker ([…]) followed by the human IgG1 hinge and Fc portion. Ovalbumin (Sigma-Aldrich) was dissolved in sterile PBS and used in native state or denatured as indicated by incubation at 95°C buffer for 10 min.
For plate-based binding experiments, native or heat-denatured ovalbumin at indicated concentrations was bound to a flat-bottom 96-well plate (Corning Inc.) with coating buffer (BioLegend), washed with PBSt, blocked with 1% BSA in PBS, and subsequently incubated with IRE1α LD-Fc (10 μg/ml) in binding buffer composed of PBS with 20 mM Hepes, 100 mM KOAc, and 0.2% tween-20 for 2 h at room temperature. Plates were washed again with PBSt and incubated with an anti-human Fc HRP-conjugated antibody (ab977225; Abcam). Development was performed with 3,3′,5,5′-Tetramethylbenzidine solution and terminated with Stop solution (BioLegend). Readings were taken with a SpectraMax M2 spectrometer (Molecular Devices).

IRE1α LD-Fc [2] = assay: Co-immunoprecipitation of ovalbumin with IRE1α LD-Fc; type: binding, human; settings: LD-Fc 10 μg/ml, 2 h; ovalbumin 1-300 μg/ml; in words
Procedure: as §1
For co-immunoprecipitation experiments, IRE1α LD-Fc (10 μg/ml) and ovalbumin (indicated concentrations) were co-incubated in binding buffer (as described above) for 2 h and then immunoprecipitated with anti-IRE1α LD antibody (made in-house at Genentech), conjugated to sepharose beads, overnight at 4°C. Beads were subsequently washed four times with lysis buffer and boiled in SDS sample buffer for 10 min. Samples were then analyzed by SDS-PAGE followed by immunoblot.

B1: ovalbumin: classical protein antigen ovalbumin (Sigma-Aldrich) (protein)
chain: MGSIGAASMEFCFDVFKELKVHHANENIFYCPIAIMSALAMVYLGAKDSTRTQINKVVRFDKLPGFGDSIEAQCGTSVNVHSSLRDILNQITKPNDVYSFSLASRLYAEERYPILPEYLQCVKELYRGGLEPINFQTAADQARELINSWVESQTNGIIRNVLQPSSVDSQTAMVLVNAIVFKGLWEKAFKDEDTQAMPFRVTEQESKPVQMMYQIGLFRVASMASEKMKILELPFASGTMSMLVLLPDEVSGLEQLESIINFEKLTEWTSSNVMEERKIKVYLPRMKMEEKYNLTSVLMAMGITDVFSSSANLSGISSAESLKISQAVHAAHAEINEAGREVVGSAEAGVDAASVSEEFRADHPFLFCIKHIATNAVLFFGRCVSP
ATF6 in BMDCs
  ATF6 activation: relatively minimal activation
IRE1α LD-Fc [1]
  binding to immobilized IRE1α LD-Fc: little binding over background
IRE1α LD-Fc [2]
  co-immunoprecipitation with IRE1α LD-Fc: did not show appreciable binding

Source: publication PMC9036094, “Antigen-derived peptides engage the ER stress sensor IRE1α to curb dendritic cell cross-presentation” (The Journal of Cell Biology, 2022)
